6 molecules from patent US20240092926A1 (ONCORESPONSE, published 2024) can be followed below.

For experiment [1], the target named is T1, His-tagged recombinant human CD163 (R&D Systems, No. 1607-CD-050) (human, UniProt Q86VB7 46-1050, limits assumed).
T1 construct: Bought protein; also called recombinant CD163 protein; huCD163; not shown: His tag
Kind of experiment: ELISA, His-tagged recombinant human CD163 coated at 5 µg/mL. The method, then:
(§1) CD163 variant antibody binding to His-tagged recombinant human CD163 (R&D Systems, No. 1607-CD-050) protein was determined using ELISA. Recombinant protein was diluted in PBS to 5 μg/mL and added to 384-well high-binding ELISA plates (Greiner Bio-One, No. 781061) at 25 μL per well and incubated at 4° C. overnight. The plates were washed three times with PBS, using a BioTek ELx405 Select microplate washer (wash program ELISA_384_PBS_3×_wash) and then blocked with 90 μL/well of blocking buffer (2% nonfat, dry milk/PBS+0.05% Tween 20) for 1 hour at RT.
(§2) After blocking, 25 μL per well of primary antibodies were added to the plates and incubated for 1 hour at RT. […] After primary antibody binding, plates were washed three times with PBS using the EL405× (wash program ELISA_384_PBS 3×_wash). The secondary antibody was a goat anti-human IgG F(ab′)₂ HRP (Jackson Immunoresearch, No. 109-035-097). Secondary antibody was diluted to 1:2500 in 2% nonfat, dry milk/PBS, and 25 μL per well was added to the wells and incubated at RT for 1 hour. The plates were washed four times with PBS, using the EL405× (wash program ELISA_384_PBS_4× wash). After removal of the final wash, 25 μL/well of neat I-Step™ Ultra TMB-ELISA Substrate Solution (ThermoFisher, No. 34028) was added and the plates were incubated for 10-15 minutes at RT protected from light. After development, the reaction was stopped by adding 25 μL per well of 0.3 M HCl and plates were read using a SpectraMax M5e instrument at 450 nm.
For orientation: ELISA stands for enzyme-linked immunosorbent assay.

For experiment [2], the target named is T1, His-tagged recombinant human CD163 (R&D …). Nature of the experiment: ELISA, His-tagged recombinant human CD163 coated; ratio of EC50 against AB101. The method, then: as §1
as §2, with “After removal of the final wash, 25 μL/well of neat I-Step™ Ultra TMB-ELISA Substrate Solution (ThermoFisher, No. 34028) was added and the plates were incubated for 10-15 minutes at RT protected from light.” left out

Experiment [3] has as its target T2, Biotin-labeled human CD163 (human, UniProt Q86VB7 42-1050, limits assumed, biotin-labeled (sites not given)).
T2 construct: Biotinylated form of the human CD163 antigen, immobilised on SA biosensors for BLI; also called b-huCD163; Human CD163 Protein (biotinylated)
Nature of the experiment: BLI (Octet RED96), b-huCD163 on SA biosensor, one Ab concentration 50.0 nM.

In experiment [4] the target is T1, His-tagged recombinant human CD163 (R&D …). Kind of experiment: ELISA, plate coated with His-tagged recombinant human CD163 at 5 µg/mL, detection with anti-human IgG F(ab')2-HRP, A450; log axis in nM. How it is done: as §1, §2
In experiment [5] the target is T2, Biotin-labeled human CD163. Nature of the experiment: BLI (Octet RED96), b-huCD163 on SA biosensor, Ab at 6.25/12.5/25/50 nM. The method, then: The SA sensors were placed in the PBS buffer for 15 minutes. Different solutions were added to a 96-well plate according to the following orders, with 200 μL per well.
A general note: Biolayer interferometry detects binding as a change in optical thickness at a sensor tip.

Experiment [6] deals with T2, Biotin-labeled human CD163. Nature of the experiment: BLI (Octet RED96), b-huCD163 on SA biosensor, ratio of KD against AB101 parental Ab.
For experiment [7], the target named is T1, His-tagged recombinant human CD163 (R&D …). Kind of experiment: ratio of the KD values of Table 6 (AB101 parental Ab KD over clone 4 KD); the method is not shown in the excerpt.
Experiment [8] has as its target T3, human CD163 expressed on cells (SU-DHL-1 lymphoma cells, M2c macrophages, monocytes and dendritic cells of … (human, UniProt Q86VB7 42-1114)). Kind of experiment: cell-based or functional assay.
Experiment [9] has as its target T3, human CD163 expressed on cells …. Nature of the experiment: cell-based or functional assay. The source holds these as a separate data set.
Experiment [10] has the same target. Nature of the experiment: cell-based or functional assay. This is another data set of the same source.
For experiment [11] the target is unchanged. Nature of the experiment: cell-based or functional assay. The source holds these as a separate data set.
The target is the same in experiment [12]. Nature of the experiment: flow cytometry on whole blood, DCs, APC-labeled antibody. How it is done:
(§3) Antibody binding to human immune cell lineage subsets was assessed by flow cytometry. Briefly, whole blood with heparin as an anticoagulant was obtained (Bloodworks Northwest). Fc-receptor blocking reagent was directly added to whole blood to a final concentration of 10% FBS, 0.5 mg/mL human IgG1 and 0.05% NaN₃ in a final sample volume of 400 μL. […] After 30 minutes, red blood cells (RBC) were lysed with RBC lysis buffer, followed by Zombie UV viability staining. Then, cells were washed with FACS buffer (PBS containing 1% FBS, 2 mM EDTA, and 0.05% NaN₃) and resuspended in FACS buffer containing 10% FBS and 10% FcX block. Then, the antibody phenotyping cocktail (Table 8a) was added and incubated at room temperature for 30 minutes in the dark. Cells were washed with FACS buffer and resuspended in FACS buffer data acquisition using a FACSymphony™ Cytometer (BD BioSciences). Analysis was performed using FlowJo software. Populations were identified according to gating parameters as described in Table 8b.

Experiment [13] shares this target. Nature of the experiment: flow cytometry on whole blood, classical monocytes, APC-labeled antibody. The method, then:
as §3
On the technique in general: Flow cytometry measures light scatter and fluorescence of single cells or particles in a stream.

The target is the same in experiment [14]. Nature of the experiment: flow cytometry on whole blood, intermediate monocytes, APC-labeled antibody. How it is done:
as §3

Experiment [15] shares this target. Kind of experiment: flow cytometry on whole blood, nonclassical monocytes, APC-labeled antibody. How it is done:
as §3

T1 sequence (Q86VB7 46-1050 limits assumed): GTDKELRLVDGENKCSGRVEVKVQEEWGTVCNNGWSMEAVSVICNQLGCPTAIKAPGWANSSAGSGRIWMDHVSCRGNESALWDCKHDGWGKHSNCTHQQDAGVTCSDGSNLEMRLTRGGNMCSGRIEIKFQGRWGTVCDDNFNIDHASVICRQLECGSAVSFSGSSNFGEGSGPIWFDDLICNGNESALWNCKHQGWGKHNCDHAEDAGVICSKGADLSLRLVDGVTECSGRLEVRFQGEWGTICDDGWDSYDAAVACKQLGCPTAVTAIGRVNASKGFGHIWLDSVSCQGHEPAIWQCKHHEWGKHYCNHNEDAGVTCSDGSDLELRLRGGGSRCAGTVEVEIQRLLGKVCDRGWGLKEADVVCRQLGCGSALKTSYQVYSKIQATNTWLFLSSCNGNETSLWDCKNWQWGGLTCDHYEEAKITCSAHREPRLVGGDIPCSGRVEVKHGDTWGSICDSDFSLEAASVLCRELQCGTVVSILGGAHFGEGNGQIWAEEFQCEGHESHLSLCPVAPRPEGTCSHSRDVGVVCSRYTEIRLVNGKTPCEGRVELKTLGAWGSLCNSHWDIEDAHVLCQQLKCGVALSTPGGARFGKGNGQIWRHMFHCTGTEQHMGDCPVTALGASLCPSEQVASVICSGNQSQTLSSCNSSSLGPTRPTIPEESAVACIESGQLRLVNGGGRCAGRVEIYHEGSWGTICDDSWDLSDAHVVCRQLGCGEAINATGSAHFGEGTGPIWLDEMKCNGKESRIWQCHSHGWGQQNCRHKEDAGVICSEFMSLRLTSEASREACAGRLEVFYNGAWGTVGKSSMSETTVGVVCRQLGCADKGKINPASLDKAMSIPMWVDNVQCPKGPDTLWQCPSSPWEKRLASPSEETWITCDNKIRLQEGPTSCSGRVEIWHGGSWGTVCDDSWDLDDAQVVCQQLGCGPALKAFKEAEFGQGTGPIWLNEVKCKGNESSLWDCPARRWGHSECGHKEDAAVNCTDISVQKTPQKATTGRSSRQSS
T3 sequence (Q86VB7 other isoform, or with tags, fused parts or gaps limits assumed): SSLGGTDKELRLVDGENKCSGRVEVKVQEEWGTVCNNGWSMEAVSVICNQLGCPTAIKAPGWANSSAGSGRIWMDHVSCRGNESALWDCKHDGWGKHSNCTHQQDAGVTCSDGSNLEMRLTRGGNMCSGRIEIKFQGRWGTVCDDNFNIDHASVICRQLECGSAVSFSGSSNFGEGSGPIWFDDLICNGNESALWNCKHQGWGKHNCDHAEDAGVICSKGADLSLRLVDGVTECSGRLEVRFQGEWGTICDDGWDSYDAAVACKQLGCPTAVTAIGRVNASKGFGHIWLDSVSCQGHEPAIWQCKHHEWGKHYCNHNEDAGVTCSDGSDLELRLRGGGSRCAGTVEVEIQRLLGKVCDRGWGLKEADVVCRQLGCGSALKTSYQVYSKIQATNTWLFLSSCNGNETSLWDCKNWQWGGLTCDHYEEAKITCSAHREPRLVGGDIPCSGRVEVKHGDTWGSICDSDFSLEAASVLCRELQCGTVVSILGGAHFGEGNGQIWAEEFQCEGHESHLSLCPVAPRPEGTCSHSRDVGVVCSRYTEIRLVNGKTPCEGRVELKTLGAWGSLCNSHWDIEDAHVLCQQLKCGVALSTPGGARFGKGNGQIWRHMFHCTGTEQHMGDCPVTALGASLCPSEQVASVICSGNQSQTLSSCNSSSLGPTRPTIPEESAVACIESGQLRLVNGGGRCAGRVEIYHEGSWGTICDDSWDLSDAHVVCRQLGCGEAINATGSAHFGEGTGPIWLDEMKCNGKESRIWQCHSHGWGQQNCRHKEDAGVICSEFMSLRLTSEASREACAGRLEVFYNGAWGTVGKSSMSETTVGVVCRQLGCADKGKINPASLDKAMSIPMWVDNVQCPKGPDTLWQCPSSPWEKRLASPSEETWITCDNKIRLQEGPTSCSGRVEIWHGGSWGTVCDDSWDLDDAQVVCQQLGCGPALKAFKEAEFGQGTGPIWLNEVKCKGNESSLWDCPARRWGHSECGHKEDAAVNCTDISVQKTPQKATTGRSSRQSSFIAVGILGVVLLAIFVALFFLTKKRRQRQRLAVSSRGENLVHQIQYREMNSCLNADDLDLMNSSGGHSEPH
T2 sequence (Q86VB7 42-1050 limits assumed): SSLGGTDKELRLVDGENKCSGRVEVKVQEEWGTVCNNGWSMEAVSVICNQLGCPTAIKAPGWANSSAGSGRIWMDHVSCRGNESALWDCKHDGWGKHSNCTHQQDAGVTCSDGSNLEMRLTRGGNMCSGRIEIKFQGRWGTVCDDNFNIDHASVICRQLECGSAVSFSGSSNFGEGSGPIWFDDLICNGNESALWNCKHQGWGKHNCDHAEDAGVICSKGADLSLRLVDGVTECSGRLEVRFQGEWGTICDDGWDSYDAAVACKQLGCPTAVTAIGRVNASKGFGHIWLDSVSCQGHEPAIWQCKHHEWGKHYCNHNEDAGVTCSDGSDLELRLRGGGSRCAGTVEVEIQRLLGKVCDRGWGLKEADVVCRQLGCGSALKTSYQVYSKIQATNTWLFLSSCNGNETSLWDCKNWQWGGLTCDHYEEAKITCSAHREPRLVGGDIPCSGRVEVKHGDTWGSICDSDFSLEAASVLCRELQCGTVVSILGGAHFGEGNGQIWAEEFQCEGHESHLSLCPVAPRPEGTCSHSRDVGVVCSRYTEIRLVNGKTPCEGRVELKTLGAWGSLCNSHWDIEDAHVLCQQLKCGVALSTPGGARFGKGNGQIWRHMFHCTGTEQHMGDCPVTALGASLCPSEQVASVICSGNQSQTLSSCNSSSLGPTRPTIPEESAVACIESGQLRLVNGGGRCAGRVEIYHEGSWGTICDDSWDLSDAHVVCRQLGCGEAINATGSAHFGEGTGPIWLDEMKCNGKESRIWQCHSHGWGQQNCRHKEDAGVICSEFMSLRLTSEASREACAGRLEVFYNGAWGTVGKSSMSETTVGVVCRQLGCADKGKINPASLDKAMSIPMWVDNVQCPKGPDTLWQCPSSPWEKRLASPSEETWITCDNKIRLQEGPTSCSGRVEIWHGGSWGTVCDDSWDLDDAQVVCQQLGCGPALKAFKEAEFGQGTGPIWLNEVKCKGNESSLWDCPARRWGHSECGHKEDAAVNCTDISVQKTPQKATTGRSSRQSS

B1: Variant 1 (V1) (antibody, V domains shown)
VH: EVQLVESGGGVVQPGRSLRLSCAASGFTFSSYDMHWVRQAPGKGLEWVAVISEDGSNKYNADSVKGRFTISRDNSKNTLYLQMNSLRAEDTAVYYCARENVRPYYDFWSGYSSEYYYYGLDVWGQGTTVTVS
VL: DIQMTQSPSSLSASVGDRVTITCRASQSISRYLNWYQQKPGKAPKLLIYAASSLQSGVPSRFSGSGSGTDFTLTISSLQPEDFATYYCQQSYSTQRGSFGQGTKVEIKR
notes: The printed VH ends in TVS, one S shorter than the other variants
With B1, the EC50 (in general, the concentration that produces a half-maximal response) in experiment [1] amounted to 1.87 nM. Moreover, the “fold stronger binding than AB101 parental antibody (EC50)” value in [2] was in the range of 27 to 45 fold. Also, in [3], the dissociation constant Kd – broadly, the free concentration of one partner at which half of the binding sites on the other are occupied at equilibrium, for simple one-to-one binding – is 1.25 nM; the off-rate (koff) (in general, a measure of how fast the partners let go of each other) worked out at 0.00112 s⁻¹; the kon (in general, the second-order rate constant of association) stood at 895000 M⁻¹ s⁻¹. For the same molecule, the 50% effective concentration (EC50 (read off the curve)) (commonly the concentration giving half of the maximal effect) in experiment [4] was ~0.002 nM.

B2: Variant 4 (V4) (antibody, V domains shown)
VH: EVQLVESGGGVVQPGRSLRLSCAASGFTFSSYVMHWVRQAPGKGLEWVAVISEDGSNKYNADSVKGRFTISRDNSKNTLYLQMNSLRAEDTAVYYCARENVRPYYDFWSGYSSEYYYYGLDVWGQGTTVTVSS
VL: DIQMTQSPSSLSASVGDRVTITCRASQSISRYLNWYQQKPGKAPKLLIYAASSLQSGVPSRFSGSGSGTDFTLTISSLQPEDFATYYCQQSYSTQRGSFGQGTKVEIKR
notes: also called clone 4
B2: the concentration giving a half-maximal response (EC50) in [1] was determined as 3.05 nM. In [5], this molecule returned a Kd of 0.176 nM, a koff of 0.000393 s⁻¹ and a kon of 2.23e+06 M⁻¹ s⁻¹. Also, the “fold stronger binding than AB101 parental antibody (EC50)” value in experiment [2] lay in the range of 27 to 45 fold. In experiment [3], this molecule came in with a dissociation constant (Kd) of 0.824 nM, a koff of 0.000874 s⁻¹ and a kon of 1.06e+06 M⁻¹ s⁻¹. Moreover, the “Affinity enhancement compared to parental Ab” value in experiment [6] was found to be 3760 fold. For the same molecule, the “fold affinity enhancement compared to AB101 parental Ab” value in experiment [7] was ~3760 fold. In addition, the “EC50 (read off the curve)” value in [4] was ~0.003 nM.

B3: Variant 3 (V3) (antibody, human IgG1, V domains shown)
VH: EVQLVESGGGVVQPGRSLRLSCAASGFTFSSYVMHWVRQAPGKGLEWVAVISEDGSNKYEADSVKGRFTISRDNSKNTLYLQMNSLRAEDTAVYYCARENVRPYYDFWRGYNSEYYYYGLDVWGQGTTVTVSS
VL: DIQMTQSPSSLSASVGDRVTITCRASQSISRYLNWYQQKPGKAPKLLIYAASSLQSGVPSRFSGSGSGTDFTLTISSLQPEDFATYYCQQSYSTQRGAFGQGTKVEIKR
In the case of B3, in experiment [8], the “potency against AB101 in relieving M2c-mediated suppression of IFNγ release” value is > 10 fold, the “potency against parental AB101 in relieving M2c-mediated suppression of CD8+ T cell proliferation” value was ~40 fold and the “potency against parental AB101 in relieving M2c-mediated suppression of perforin secretion” value is ~100 fold. The “EC50 of antibody-elicited T cell proliferation (M2c/CD8+ T cell coculture)” value in experiment [9] is 0.27 nM. Further, the “EC50 of antibody-elicited perforin secretion (M2c/CD8+ T cell coculture)” value in [10] is 0.33 nM. For the same molecule, in experiment [11], the “EC50 of antibody-elicited IFNγ secretion (M2c/T cell blast coculture)” value came out at 0.47 nM. Moreover, the “fold increase of geometric MFI compared to AB101” value (“fold increase of geometric MFI” below) in experiment [12] was 4.3 fold. In addition, the EC50 in experiment [1] stood at 2.79 nM. The “fold increase of geometric MFI” value in [13] was 9.8 fold. Moreover, the “fold increase of geometric MFI” value in [14] stood at 9.2 fold. Further, in experiment [15], the “fold increase of geometric MFI” value stood at 3 fold. Also, in experiment [3], binding was characterised by a dissociation constant (Kd) of 0.937 nM, the off-rate (koff) came out at 0.000925 s⁻¹ and the kon came to 987000 M⁻¹ s⁻¹. The “EC50 (read off the curve)” value in experiment [4] is ~0.003 nM.

B4: Variant 5 (V5) (antibody, V domains shown)
VH: EVQLVESGGGVVQPGRSLRLSCAASGFTFSSYDMHWVRQAPGKGLEWVAVISEDGSNKYNADSVKGRFTISRDNSKNTLYLQMNSLRAEDTAVYYCARENVRPYYDFWRGYNSEYYYYGLDVWGQGTTVTVSS
VL: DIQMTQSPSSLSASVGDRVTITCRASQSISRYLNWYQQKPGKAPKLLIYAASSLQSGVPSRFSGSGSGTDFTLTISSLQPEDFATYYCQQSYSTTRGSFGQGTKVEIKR
B4: the EC50 in experiment [1] was found to be 2.83 nM. Moreover, in experiment [3], binding was characterised by a dissociation constant (Kd) of 1.03 nM, the koff amounted to 0.000978 s⁻¹ and the kon is 951000 M⁻¹ s⁻¹. In experiment [4], the “EC50 (read off the curve)” value is ~0.003 nM.

B5: Variant 6 (V6) (antibody, V domains shown)
VH: EVQLVESGGGVVQPGRSLRLSCAASGFTFSSETMHWVRQAPGKGLEWVAVISEDGSNKYNADSVKGRFTISRDNSKNTLYLQMNSLRAEDTAVYYCARENVRPYYDFWSGYSSEYYYYGLDVWGQGTTVTVSS
VL: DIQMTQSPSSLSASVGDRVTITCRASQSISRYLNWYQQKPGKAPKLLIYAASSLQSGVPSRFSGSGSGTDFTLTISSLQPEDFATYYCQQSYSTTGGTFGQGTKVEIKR
Take B5: the EC50 in experiment [1] was determined as 2.68 nM. In experiment [3], this molecule returned a Kd of 0.964 nM, a koff of 0.000887 s⁻¹ and a kon of 921000 M⁻¹ s⁻¹. Also, the “EC50 (read off the curve)” value in [4] is ~0.003 nM.

B6: Variant 2 (V2) (antibody, V domains shown)
VH: EVQLVESGGGVVQPGRSLRLSCAASGFTFSSETMHWVRQAPGKGLEWVAVISEDGSNKYHADSVKGRFTISRDNSKNTLYLQMNSLRAEDTAVYYCARENVRPYYDFWSGYNSEYYYYGMDVWGQGTTVTVSS
VL: DIQMTQSPSSLSASVGDRVTITCRASQSISRYLNWYQQKPGKAPKLLIYAASSLQNGVPSRFSGSGSGTDFTLTISSLQPEDFATYYCQQSYSTTRGSFGQGTKVEIKR
Turning to B6, in experiment [1], the EC50 was 2.23 nM. For the same molecule, in experiment [3], the Kd was determined as 0.991 nM, the koff came out at 0.00087 s⁻¹ and the on-rate (kon) turned out to be 878000 M⁻¹ s⁻¹. Further, the “EC50 (read off the curve)” value in experiment [4] is ~0.002 nM.
